The values below are quoted from earlier work in article PMC3720604.

For this data set, the target named is CK2β (Homo sapiens) (UniProt P67870).
Sequence of UniProt P67870 (P67870 2-215): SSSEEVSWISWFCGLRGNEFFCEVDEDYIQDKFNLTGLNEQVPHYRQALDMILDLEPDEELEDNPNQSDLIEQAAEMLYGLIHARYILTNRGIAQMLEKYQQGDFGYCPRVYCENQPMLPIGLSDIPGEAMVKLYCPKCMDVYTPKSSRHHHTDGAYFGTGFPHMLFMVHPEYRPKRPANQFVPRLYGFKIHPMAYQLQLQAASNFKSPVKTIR

As to CK2α′ (from UniProt P19784), the Kd is 45.5 nM.

What is called Kd is a measure of binding affinity in units of concentration.
